According to PMC3548508:
Several values for one entry are separate records, joined by “and”; a condition that tells them apart may be missing. Equal entries are not always repeated.

How the values were obtained:
[1] = target: Selenomethionine-containing TraMΔ as crystallised (TraM 194-322) (Enterococcus faecalis (conjugative plasmid pIP501)); test: crystal structure
[2] = target: TraM C-terminal domain (TraM 190-322) from the Enterococcus faecalis conjugative plasmid pIP501 (Enterococcus faecalis (conjugative plasmid pIP501)); test: cross-linking

## Selenomethionine-containing TraMΔ as crystallised (TraM 194-322) (domain or fragment)
[1]
  stoichiometry N: 3

## TraM C-terminal domain (TraM 190-322) from the Enterococcus faecalis conjugative plasmid pIP501 (domain or fragment)
[2]
  stoichiometry N: 2 and 3
